From the supplement of paper PMC6757056
± gives the standard deviation of the averaged measurements.

B1: library; a variant is named by its letters at N, in order (parent)
chain: GCUGUCACCGGUGUAUUACCCUAGUGGUCGACCGGUCUGAUGAGUCUNNNNNNAGACGAAACAGC

How the values were obtained:
[1] = variants of: B1; experiment: FACS-Seq fitted mean relative fluorescence mCherry/BFP without ligand (log10 relative fluorescence); ligand: hypoxanthine (xanthine aptamer); higher = higher reporter protein expression; settings: HEK293T, ligand present: no
Procedure, shortened: (§1)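 HEK293T libraries were lentivirally transduced with an mCherry reporter carrying the ribozyme switch and an EF1α-BFP marker, enriched, and incubated for 48 h with or without ligand before sorting into 6 bins by mCherry/BFP. Genomic DNA from each bin was PCR-amplified, barcoded and sequenced on MiSeq. Fluorescence is the fitted normal mean of the bin counts. The fit used log10(mCherry/BFP), and means were scaled to five spiked-in control ribozymes.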

[2] = variants of: B1; experiment: normalized RNA/DNA level with ligand (relative to sTRSVctl = 100) (log10 (% of sTRSVctl)); ligand: hypoxanthine (xanthine aptamer); higher = less ribozyme self-cleavage, higher mRNA level; settings: ligand concentration (+) RNA-Seq: 5 mM, HEK293T, reporter: mCherry (pCS4076), ligand present: yes
Procedure, shortened: (§2)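 Ribozyme switch library plasmids linked to reporters were introduced into HEK293T cells at 4 µg per 6-well well, with ligand, if any, added 1 h before. Total RNA was extracted with EDTA 72 h later, reverse-transcribed, amplified, barcoded and sequenced. RNA level was computed from RNA over DNA reads relative to a spiked-in non-cleaving sequence or the top sequences, then scaled and log-transformed. The top set was 25 sequences, values were ×100 and log10, and the cutoff was ≥100 DNA reads.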

[3] = variants of: B1; experiment: normalized RNA/DNA level without ligand (relative to sTRSVctl = 100) (log10 (% of sTRSVctl)); ligand: hypoxanthine (xanthine aptamer); higher = less ribozyme self-cleavage, higher mRNA level; settings: HEK293T, reporter: mCherry (pCS4076), ligand present: no
Procedure, shortened: as §2

[4] = variants of: B1; experiment: FACS-Seq fitted mean relative fluorescence mCherry/BFP with ligand (log10 relative fluorescence); ligand: hypoxanthine (xanthine aptamer); ligand concentration (+) FACS-Seq: 5 mM; higher = higher reporter protein expression; settings: HEK293T, ligand present: yes
Procedure, shortened: as §1

| Variant | FACS-Seq fitted mean (log10) [1] | normalized RNA/DNA level with ligand (log10) [2] | normalized RNA/DNA level without ligand (log10) [3] | FACS-Seq fitted mean (log10) [4] |
| --- | --- | --- | --- | --- |
| GGGUCC | 0.29 ± 0.12 | 2 ± 0.023 | 1.991 ± 0.019 | 0.3574 ± 0.0012 |
| GGGCAG | 0.0036 ± 0.061 | 1.881 ± 0.013 | 1.5894 ± 0.0015 | 0.434 ± 0.012 |
| GGGCAA | 0.0453 ± 0.045 | 1.963 ± 0.0095 | 1.783 ± 0.013 | 0.266 ± 0.015 |
| GGGCAU | -0.045 ± 0.015 | 1.933 ± 0.012 | 1.83 ± 0.075 | 0.103 ± 0.018 |
| AGGUCA | 0.881 ± 0.045 | 1.94 ± 0.071 | 1.68 ± 0.052 | 0.729 ± 0.035 |
| AGGAGU | 0.142 ± 0.026 | 1.8 ± 0.024 | 1.37 ± 0.03 | 0.537 ± 0.073 |
| AGGAGG | 0.0646 ± 0.011 | 1.584 ± 0.0034 | 1.186 ± 0.0034 | 0.626 ± 0.055 |
| UGGCAU | 0.353 ± 0.011 | 1.95 ± 0.06 | 1.755 ± 0.014 | 0.465 ± 0.046 |
| UGGCAG | 0.155 ± 0.013 | 1.91 ± 0.045 | 1.69 ± 0.045 | 0.563 ± 0.052 |
| UGGGUA | 0.491 ± 0.13 | 1.95 ± 0.031 | 1.85 ± 0.061 | 0.699 ± 0.12 |
| AGGCCG | 0.147 ± 0.0087 | 1.89 ± 0.018 | 1.67 ± 0.054 | 0.366 ± 0.045 |
| AGGCCA | 0.668 ± 0.014 | 1.96 ± 0.016 | 1.86 ± 0.023 | 0.607 ± 0.064 |
| AGGCCU | 0.421 ± 0.032 | 1.94 ± 0.022 | 1.97 ± 0.069 | 0.554 ± 0.071 |
| GGGAGG | 0.0166 ± 0.058 | 1.76 ± 0.021 | 1.3 ± 0.03 | 0.374 ± 0.033 |
| GGGAGU | 0.36 ± 0.0084 | 1.92 ± 0.047 | 1.63 ± 0.039 | 0.629 ± 0.011 |
| GGGAUG | 0.0328 ± 0.0034 | 1.79 ± 0.043 | 1.323 ± 0.0058 | 0.564 ± 0.02 |
| GGGGUA | 0.00434 ± 0.0088 | 1.94 ± 0.064 | 1.837 ± 0.0033 | 0.179 ± 0.094 |
| CGGGUU | -0.0176 ± 0.018 | 1.99 ± 0.027 | 1.89 ± 0.044 | -0.176 ± 0.051 |
| CGGGUA | 0.436 ± 0.033 | 1.94 ± 0.044 | 1.82 ± 0.068 | 0.64 ± 0.015 |
| CGGGCU | 0.773 ± 0.061 | 1.946 ± 0.019 | 1.954 ± 0.0037 | 0.578 ± 0.023 |
| GGGCUA | 0.512 ± 0.024 | 2.01 ± 0.015 | 1.943 ± 0.015 | 0.456 ± 0.011 |
| GGGCUG | 0.228 ± 0.058 | 1.967 ± 0.0031 | 1.775 ± 0.0099 | 0.495 ± 0.026 |
| GGGGGC | 0.564 ± 0.051 | 1.85 ± 0.06 | 1.51 ± 0.023 | 0.468 ± 0.037 |
| GGGGGU | 0.334 ± 0.062 | 1.935 ± 0.0072 | 1.86 ± 0.02 | 0.316 ± 0.064 |

| Variant | FACS-Seq fitted mean (log10) [1] | normalized RNA/DNA level with ligand (log10) [2] | normalized RNA/DNA level without ligand (log10) [3] | FACS-Seq fitted mean (log10) [4] |
| --- | --- | --- | --- | --- |
| AGGGCG | 0.511 ± 0.024 | 1.91 ± 0.028 | 1.57 ± 0.1 | 0.709 ± 0.089 |
| AGGGCA | 0.0731 ± 0.046 | 1.97 ± 0.02 | 1.815 ± 0.016 | 0.174 ± 0.034 |
| UGGUCA | 0.761 ± 0.06 | 1.97 ± 0.043 | 1.84 ± 0.025 | 0.607 ± 0.11 |
| CGGAGU | 0.289 ± 0.057 | 1.91 ± 0.024 | 1.78 ± 0.074 | 0.556 ± 0.041 |
| UGGGGA | 0.00194 ± 0.046 | 1.88 ± 0.041 | 1.48 ± 0.029 | 0.376 ± 0.0086 |
| UGGCUG | 0.218 ± 0.011 | 2.02 ± 0.0097 | 1.95 ± 0.04 | 0.298 ± 0.023 |
| UGGCUU | 0.674 ± 0.017 | 1.97 ± 0.02 | 1.94 ± 0.03 | 0.66 ± 0.06 |
| AGGGUC | 0.588 ± 0.012 | 2.003 ± 0.0048 | 1.94 ± 0.06 | 0.51 ± 0.11 |
| AGGGUU | 0.328 ± 0.006 | 1.97 ± 0.027 | 1.9 ± 0.029 | 0.0205 ± 0.029 |
| AGGGUA | 0.412 ± 0.086 | 1.95 ± 0.041 | 1.82 ± 0.0091 | 0.427 ± 0.064 |
| AGGGAA | 0.524 ± 0.1 | 1.86 ± 0.025 | 1.68 ± 0.045 | 0.684 ± 0.034 |
| AGGGAG | -0.123 ± 0.041 | 1.78 ± 0.086 | 1.4 ± 0.042 | 0.0991 ± 0.022 |
| AGGGAC | 0.0327 ± 0.041 | 1.916 ± 0.017 | 1.7 ± 0.018 | -0.137 ± 0.14 |
| GGGGCU | -0.598 ± 0.026 | 1.99 ± 0.074 | 2.008 ± 0.015 | -0.677 ± 0.077 |
| GGGGCC | -0.395 ± 0.028 | 1.97 ± 0.036 | 1.89 ± 0.077 | 0.0142 ± 0.039 |
| UGGAUG | 0.4451 ± 0.0015 | 1.92 ± 0.025 | 1.659 ± 0.0063 | 0.341 ± 0.018 |
| CGGCAU | -0.119 ± 0.0088 | 1.9 ± 0.037 | 1.56 ± 0.1 | 0.0858 ± 0.0049 |
| CGGUAG | 0.498 ± 0.066 | 1.9 ± 0.036 | 1.61 ± 0.029 | 0.506 ± 0.0093 |
| CGGUAA | 0.258 ± 0.03 | 1.814 ± 0.002 | 1.27 ± 0.058 | 0.537 ± 0.027 |
| CGGUAU | 0.0356 ± 0.0062 | 1.79 ± 0.05 | 1.41 ± 0.016 | 0.468 ± 0.05 |
| AGGCAU | -0.0543 ± 0.062 | 1.92 ± 0.067 | 1.8 ± 0.047 | 0.027 ± 0.034 |
| AGGCAG | 0.337 ± 0.023 | 1.82 ± 0.037 | 1.45 ± 0.0028 | 0.534 ± 0.015 |
| GGGUAA | 0.396 ± 0.048 | 1.884 ± 0.0098 | 1.71 ± 0.045 | 0.6223 ± 0.0027 |
| GGGUAC | 0.1586 ± 0.00038 | 1.93 ± 0.06 | 1.68 ± 0.037 | 0.529 ± 0.049 |

| Variant | FACS-Seq fitted mean (log10) [1] | normalized RNA/DNA level with ligand (log10) [2] | normalized RNA/DNA level without ligand (log10) [3] | FACS-Seq fitted mean (log10) [4] |
| --- | --- | --- | --- | --- |
| GGGUAU | 0.137 ± 0.2 | 1.94 ± 0.053 | 1.71 ± 0.047 | 0.374 ± 0.03 |
| GGGUAG | -0.254 ± 0.0079 | 1.74 ± 0.03 | 1.44 ± 0.079 | 0.395 ± 0.063 |
| AGGCGU | 0.521 ± 0.063 | 1.94 ± 0.02 | 1.67 ± 0.025 | 0.656 ± 0.01 |
| AGGCGG | 0.194 ± 0.017 | 1.841 ± 0.0031 | 1.354 ± 0.01 | 0.536 ± 0.039 |
| GGGCGG | 0.372 ± 0.034 | 1.9325 ± 0.00079 | 1.577 ± 0.0083 | 0.586 ± 0.017 |
| GGGGAG | -0.274 ± 0.0067 | 1.812 ± 0.0043 | 1.46 ± 0.013 | -0.0598 ± 0.036 |
| GGGGAA | 0.623 ± 0.047 | 1.91 ± 0.032 | 1.66 ± 0.022 | 0.751 ± 0.032 |
| UGGAGU | 0.221 ± 0.061 | 1.78 ± 0.019 | 1.32 ± 0.051 | 0.602 ± 0.023 |
| UGGAGG | 0.223 ± 0.0051 | 1.73 ± 0.018 | 1.26 ± 0.072 | 0.592 ± 0.036 |
| CGGGGC | 0.7 ± 0.032 | 1.95 ± 0.021 | 1.896 ± 0.017 | 0.628 ± 0.0078 |
| UGGCGA | 0.345 ± 0.039 | 1.94 ± 0.031 | 1.65 ± 0.034 | 0.579 ± 0.11 |
| AGGCUA | 0.509 ± 0.0085 | 1.93 ± 0.031 | 1.811 ± 0.0095 | 0.617 ± 0.057 |
| AGGCUG | 0.279 ± 0.011 | 2 ± 0.04 | 1.78 ± 0.045 | 0.333 ± 0.014 |
| CGGAUU | -0.13 ± 0.0099 | 1.94 ± 0.045 | 1.744 ± 0.0072 | 0.244 ± 0.014 |
| GGGCCG | -0.0164 ± 0.068 | 1.98 ± 0.05 | 1.923 ± 0.0046 | 0.175 ± 0.031 |
| GGGCCA | 0.693 ± 0.015 | 1.9809 ± 0.00094 | 1.99 ± 0.032 | 0.808 ± 0.082 |
| AGGGGG | 0.363 ± 0.12 | 1.88 ± 0.034 | 1.53 ± 0.07 | 0.631 ± 0.028 |
| AGGGGC | 0.795 ± 0.067 | 1.95 ± 0.047 | 1.86 ± 0.079 | 0.741 ± 0.049 |
| AGGUAA | 0.414 ± 0.059 | 1.87 ± 0.022 | 1.6 ± 0.06 | 0.443 ± 0.069 |
| AGGUAG | 0.161 ± 0.019 | 1.73 ± 0.019 | 1.3 ± 0.047 | 0.537 ± 0.019 |
| AGGUAC | 0.133 ± 0.061 | 1.893 ± 0.017 | 1.72 ± 0.02 | 0.0782 ± 0.049 |
| AGGUAU | 0.648 ± 0.15 | 1.871 ± 0.013 | 1.69 ± 0.03 | 0.665 ± 0.12 |
| AGGAUA | -0.536 ± 0.015 | 1.9 ± 0.027 | 1.677 ± 0.0074 | -0.0798 ± 0.042 |
| AGGAUG | 0.132 ± 0.024 | 1.79 ± 0.042 | 1.25 ± 0.045 | 0.526 ± 0.06 |
